From patent US20170088602A1 (Bristol-Myers Squibb, published 2017)
Where a chain is given by its changes, count along the chain named. Numbers in names are those of the source. Read-outs that look alike come from different tables or passages of the source.

T1: human Activin A (R&D Systems) (human, UniProt P08476 311-426)
T1 sequence (looked up): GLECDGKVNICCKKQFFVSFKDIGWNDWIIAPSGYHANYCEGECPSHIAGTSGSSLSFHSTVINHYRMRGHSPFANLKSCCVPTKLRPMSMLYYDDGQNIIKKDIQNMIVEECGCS

T2: human myostatin (mature, recombinant; R&D Systems) (human, UniProt O14793 267-375)
T2 construct: biotinylated in the mRNA display selection; also called GDF-8; mature myostatin
T2 sequence: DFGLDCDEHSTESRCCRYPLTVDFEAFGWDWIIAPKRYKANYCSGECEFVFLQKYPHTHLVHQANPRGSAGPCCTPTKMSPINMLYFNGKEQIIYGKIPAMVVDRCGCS

B1: ActRIIB-Fc (produced in house) (Fc fusion, UniProt Q13705 19-134, looked up, not shown: a dimerising Fc or GST)
chain: SGRGEAETRECIYYNANWELERTNQSGLERCEGEQDKRLHCYASWRNSSGTIELVKKGCWLDDFNCYDRQECVATEENPQVYFCCCEGNFCNERFTHLPEAGGPEVTYEPPPTAPT
B2: ActRIIB-monomer (produced in house) (receptor, UniProt Q13705 19-134, looked up)
chain: B1 chain
B3: ATI-1276 [40K 2-branch PEG] (designed binder)
chain: MGVSDVPRDLEVVAATPTSLLISWYLPYPAHMNYYRITYGETGGNSPVQEFTVPGRGLTATISGLKPGVDYTITVYAVTLTKSQILHHRPISINYRTEGSGCHHHHHH
modifications: 40K 2-branch PEG on the Cys of the EGSGC tail
notes: cysteine mutant of 2524_D09
B4: ATI-1278 [40K 2-branch PEG] (designed binder)
chain: B3 chain with Y25S, P29A, A30G, M32L, L58V, I85L, L86I, H88Y, R89M
modifications: 40K 2-branch PEG on the Cys of the EGSGC tail
notes: cysteine mutant of 2525_D05
B5: human BMP-11 (GDF-11; R&D Systems) (ligand, UniProt O95390 299-407, looked up)
chain: NLGLDCDEHSSESRCCRYPLTVDFEAFGWDWIIAPKRYKANYCSGQCEYMFMQKYPHTHLVQQANPRGSAGPCCTPTKMSPINMLYFNDKQQIIYGKIPGMVVDRCGCS
B6: ALK5-Fc (R&D Systems) (Fc fusion, UniProt P36897 34-125, looked up, not shown: a dimerising Fc or GST)
chain: LQCFCHLCTKDNFTCVTDGLCFVSVTETTDKVIHNSMCIAEIDLIPRDRPFVCAPSSKTGSVTTTYCCNQDHCNKIELPTTVKSSPGLGPVE
B7: ATI-1339 [40K 4-branch PEG] (designed binder)
chain: MGVSDVPRDLEVVAATPTSLLISWTLPHAGRAHYYRITYGETGGNSPVQEFTVPGRGVTATISGLKPGVDYTITVYAVTVTTTKVIHYKPISINYRTEGSGCHHHHHH
modifications: 40K 4-branch PEG on the Cys of the EGSGC tail
notes: cysteine mutant of 2987_H07
B8: ATI-1338 [40K 2-branch PEG] (designed binder)
chain: B7 chain
modifications: 40K 2-branch PEG on the Cys of the EGSGC tail
notes: cysteine mutant of 2987_H07
B9: 3116_A06 R56A (designed binder)
chain: MGVSDVPRDLEVVAATPTSLLISWSLPHQGKANYYRITYGETGGNSPVQEFTVPGAGVTATISGLKPGVDYTITVYAVTVTDTGYLKYKPISINYRTEIDKPSQHHHHHH
B10: 3116_A06 T81A (designed binder)
chain: B9 chain with A56R, T81A
B11: ALK4-Fc (R&D Systems) (Fc fusion, UniProt P36896 24-126, looked up, not shown: a dimerising Fc or GST)
chain: SGPRGVQALLCACTSCLQANYTCETDGACMVSIFNLDGMEHHVRTCIPKVELVPAGKPFYCLSSEDLRNTHCCYTDYCNRIDLRVPSGHLKEPEHPSMWGPVE
notes: also called activin receptor-like kinase 4 Fc

Legend:
[1] = biological target: B5; test: SPR Format A; 100 nM BMP11 alone
Protocol: (§1) Competition SPR: Competitive binding assays to evaluate the ability of anti-myostatin Adnectins to compete with Type I and Type II receptors for binding to myostatin or BMP11, as a surrogate for myostatin, were also conducted using SPR on a Biacore T100 instrument, in two different experimental formats. In “SPR Format A”, sensor chip surfaces were prepared by immobilizing 100 ug/ml protein A (Pierce) in 10 mM acetate pH 4.5 to 4500 RU on a CM5 sensor chip (Biacore/GE Healthcare) using standard ethyl(dimethylaminopropyl) carbodiimide (EDC)/N-hydroxysuccinimide (NHS) chemistry, with ethanolamine blocking. […] The running buffer for immobilization and competition experiments was 10 mM HEPES, 150 mM NaCl, 3 mM EDTA, and 0.05% v/v Surfactant P20, pH 7.4, and surfaces were regenerated between cycles using two injections of 10 mM glycine pH 1.5 for 30 s at 30 μl/min.

[2] = biological target: B5; test: SPR Format A; 100 nM BMP11 with 200 nM ATI-1523 as competitor
Protocol: as §1

[3] = biological target: B5; test: SPR Format B; immobilized BMP11, no pre-bound PRD-1474
Protocol: (§2) Adnectin competition using “SPR format B”: The mechanism of action for anti-myostatin Adnectins was further evaluated in “SPR Format B”, where myostatin or BMP11 (10 μg/ml in 10 mM acetate pH 4.5) were directly immobilized on a CM5 sensor chip surface using EDC/NHS coupling chemistry to a density of 985 RU (myostatin) or 530 RU (BMP11). […] The running buffer for immobilization and competition experiments was 10 mM HEPES, 150 mM NaCl, 3 mM EDTA, and 0.05% v/v Surfactant P20, pH 7.4, and surfaces were regenerated between cycles using 4 injections of 50 mM NaOH for 15 s at 30 μl/min.

[4] = biological target: B5; test: SPR Format B; immobilized BMP11 with pre-bound PRD-1474 as competitor
Protocol: as §2

[5] = biological target: T1, human Activin A (R&D Systems); test: cell-based or functional assay
[6] = biological target: T2, human myostatin (mature, recombinant; …); test: SPR format A, 25C
Description: (§3) Anti-human Fc antibody (Biacore/GE) was immobilized on a Biacore CM5 chip via NHS/EDC coupling according to the manufacturer's instructions. […] A concentration range of anti-myostatin Adnectin was applied across all flow cells in HBSP running buffer. Regeneration of the chip surface between cycles was accomplished with two 30 second pulses of 3M MgCl₂. Kinetic traces of reference-subtracted sensorgrams were fit to a 1:1 binding model using Biaevaluation software.

[7] = biological target: B5; test: SPR format A, 25C
Description: as §3

[8] = biological target: T2, human myostatin (mature, recombinant; …); test: cell-based or functional assay
[9] = biological target: B5; test: cell-based or functional assay
[10] = biological target: T2, human myostatin (mature, recombinant; …); test: competitive HTRF (1889E01/myostatin/ActRIIb-Fc sandwich)
Description: An HTRF assay was used to measure the binding affinities of anti-myostatin Adnectins to myostatin. […] The Eu-W 1024 labeled Streptavidin is used to bind biotinylated 1889E01. […] In the presence of a competitive Adnectin, the HTRF signal decreases.

ActRIIb-Fc (R&D Systems) = biological target: T3, ActRIIb-Fc (R&D Systems) (human, UniProt Q13705 19-134, Alexa Fluor 647 label in the HTRF assay); test: SPR format A set-up
T3 construct: also called rhActRIIb-Fc; Human Activin RIIB Fc Chimera
Description: as §3

[11] = biological target: T2, human myostatin (mature, recombinant; …); test: SPR format B, 37C
Protocol: (§4) A concentration range of anti-myostatin Adnectins was applied in HBSP running buffer. Regeneration of the chip surface between cycles was accomplished with 60 seconds of 10-50 mM NaOH. Kinetic traces of reference-subtracted sensorgrams were fit to a 1:1 binding model using Biaevaluation software. For Fc-formatted Adnectins, interaction kinetics are driven by avidity of bivalent Fc and dimeric myostatin even at low immobilization density. The data shown in Table 12 indicate that some of the Adnectins run in this SPR format bind myostatin and BMP-11 and also activin with similar affinities.

[12] = biological target: B5; test: SPR format B, 37C
Protocol: as §4

[13] = biological target: T1, human Activin A (R&D Systems); test: SPR format B, 37C
Protocol: as §4

[14] = biological target: T1, human Activin A (R&D Systems); test: cell-based or functional assay; remark: listed apart in the source
[15] = biological target: T2, human myostatin (mature, recombinant; …); test: KinExA, solution phase, global analysis
Protocol: The affinities of PRD-1177 and ATI-1338 were also measured using the same assay format. Triplicate titrations of PRD-1177 were performed with myostatin at a monomer concentration of 1 nM (n=2) and 0.8 nM (n=1). Triplicate titrations of ATI-1338 were performed with myostatin at a monomer concentration of 5 nM (n=1), 1.6 nM (n=1), and 1.4 nM (n=1).

[16] = biological target: T2, human myostatin (mature, recombinant; …); test: cell-based or functional assay; remark: listed apart in the source
[17] = biological target: T2, human myostatin (mature, recombinant; …); test: competitive HTRF, alanine scan
[18] = biological target: T2, human myostatin (mature, recombinant; …); test: HTRF competition binding assay, alanine mutant
[19] = biological target: T2, human myostatin (mature, recombinant; …); test: cell-based or functional assay; remark: listed apart in the source
[20] = biological target: T2, human myostatin (mature, recombinant; …); test: HTRF competition binding assay, alanine mutant against 3116_A06

Binder: B1
SPR binding response (normalized) [1]: 100%
SPR binding response (normalized) [2]: 189%

Binder: B2
SPR binding response (normalized) [3]: 100%
SPR binding response (normalized) [4]: 92%

Binder: B3
ARE-luciferase IC50 [5]: 110 nM
Kd [6]: 4.18 nM
Kd [7]: 8.8 nM
ARE-luciferase IC50 [8]: 0.08 nM
ARE-luciferase IC50 [9]: 0.15 nM
IC50 [10]: 0.28 nM

Binder: B4
ARE-luciferase IC50 [5]: > 2000 nM
Kd [6]: 6.04 nM
Kd [7]: 3.3 nM
ARE-luciferase IC50 [8]: 0.27 nM
ARE-luciferase IC50 [9]: 1.1 nM
IC50 [10]: 0.54 nM

Binder: B5
binding result (ActRIIb-Fc (R&D Systems)): binds

Binder: B6
SPR binding response (normalized) [1]: 100%
SPR binding response (normalized) [3]: 100%
SPR binding response (normalized) [2]: 31%
SPR binding response (normalized) [4]: 65%

Binder: B7
Kd [11]: 3.6 nM
Kd [12]: 6.9 nM
Kd [13]: 6.5 nM
ARE-luciferase IC50 [8]: 0.28 nM
ARE-luciferase IC50 [9]: 6 nM
ARE-luciferase IC50 [14]: > 1000 nM
IC50 [10]: 0.28 nM

Binder: B8
Kd [11]: 1.9 nM
Kd [12]: 3.8 nM
Kd [13]: 4.6 nM
ARE-luciferase IC50 [8]: 0.28 nM
ARE-luciferase IC50 [9]: 5.8 nM
ARE-luciferase IC50 [14]: > 1000 nM
Kd [15]: 0.85 nM
IC50 [10]: 0.24 nM

Binder: B9
Myostatin ARE-luc IC50 [16]: > 100 nM
IC50 [17]: 55 nM
IC50 [18]: > 100 nM

Binder: B10
ARE-luciferase cell-based assay, IC50 relative to parent sequence [19]: > 10 fold
Myostatin ARE-luc IC50 [16]: 32 nM
IC50 [17]: 4.9 nM
fold increase in IC50 relative to the parental sequence (WT) [20]: > 10 fold

Binder: B11
SPR binding response (normalized) [1]: 100%
SPR binding response (normalized) [3]: 100%
SPR binding response (normalized) [2]: 2%
SPR binding response (normalized) [4]: 30%
